# Patent US20090138978A1 (GENERAL HOSPITAL, published 2009)
# T1: GST-p300 (1572-2370) (UniProt Q09472 1572-2370)
# T1 construct: also called carboxy-terminal segment of p300; not shown: glutathione S-transferase
# T1 sequence (looked up): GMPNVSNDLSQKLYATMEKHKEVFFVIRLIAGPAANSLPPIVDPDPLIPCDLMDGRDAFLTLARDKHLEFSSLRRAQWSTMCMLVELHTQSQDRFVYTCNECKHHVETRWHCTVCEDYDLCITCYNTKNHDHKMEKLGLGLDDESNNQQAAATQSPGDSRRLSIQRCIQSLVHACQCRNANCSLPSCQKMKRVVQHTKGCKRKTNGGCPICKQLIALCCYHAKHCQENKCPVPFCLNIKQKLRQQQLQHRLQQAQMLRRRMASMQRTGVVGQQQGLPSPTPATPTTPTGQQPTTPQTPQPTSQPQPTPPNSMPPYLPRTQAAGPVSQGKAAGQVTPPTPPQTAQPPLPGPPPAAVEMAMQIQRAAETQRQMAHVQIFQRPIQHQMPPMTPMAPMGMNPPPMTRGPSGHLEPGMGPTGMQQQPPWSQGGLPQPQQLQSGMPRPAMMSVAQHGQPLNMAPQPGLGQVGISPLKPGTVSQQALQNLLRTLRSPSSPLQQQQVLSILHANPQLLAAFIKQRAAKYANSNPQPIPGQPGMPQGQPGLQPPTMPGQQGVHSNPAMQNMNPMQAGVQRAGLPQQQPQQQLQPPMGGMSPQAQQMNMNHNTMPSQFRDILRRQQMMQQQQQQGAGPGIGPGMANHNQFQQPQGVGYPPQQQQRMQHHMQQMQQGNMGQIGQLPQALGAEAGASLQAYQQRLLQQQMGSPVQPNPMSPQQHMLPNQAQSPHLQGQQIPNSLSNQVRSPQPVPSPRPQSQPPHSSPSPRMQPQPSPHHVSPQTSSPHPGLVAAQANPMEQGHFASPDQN
# B1: rat inhibitor of differentiation-3 (Id3) (yeast interaction trap control protein) (other, UniProt P41138 1-119, looked up)
# chain: MKALSPVRGCYEAVCCLSERSLAIARGRGKSPSAEEPLSLLDDMNHCYSRLRELVPGVPRGTQLSQVEILQRVIDYILDLQVVLAEPAPGPPDGPHLPIQTAELTPELVISKDKRSFCH
# notes: Control protein tested against the PDX-1 bait
# B2: rat Bridge-1 (full-length, 1-222) (other)
# chain: MSSEEVRHRAESSEARAAAVSDIQELMRRKEEIEAQIKANYDVLESQKGIGMNEPLVDCEGYPRADVDLYQVRTARHNIICLQNDHKALMKQVEEALHQLHARDKEKQARDMAEAREEAMNRRLASDSPALPKAFARVNSISPGSPASIAGLQVDDEIVEFGSVNTQNFQSLQNVGTVVQHSEGKPLNVMVIRRGEKHQLRLTPTRWAGKGLLGCNITPLQR
# modifications: [35S]-methionine labelled in the pull-down assays
# notes: In vitro translated from pcDNA3-Bridge-1 in rabbit reticulocyte lysate for the pull-downs; Expressed from the same vector in BHK and HeLa cells for the reporter assays; also called [35S]-Bridge-1; radiolabeled in vitro translated Bridge-1
# B3: GST-Bridge-1 (D156P) (other)
# chain: MSSEEVRHRAESSEARAAAVSDIQELMRRKEEIEAQIKANYDVLESQKGIGMNEPLVDCEGYPRADVDLYQVRTARHNIICLQNDHKALMKQVEEALHQLHARDKEKQARDMAEAREEAMNRRLASDSPALPKAFARVNSISPGSPASIAGLQVDPEIVEFGSVNTQNFQSLQNVGTVVQHSEGKPLNVMVIRRGEKHQLRLTPTRWAGKGLLGCNITPLQR
# notes: also called mutant GST-Bridge-1 fusion protein D156P; not shown: N-terminal glutathione-S-transferase carrier encoded by pGEX-5X-1, plus the short vector-derived linker
# How the values were obtained:
# [1] = molecular target: human PDX-1/IPF-1 mutant P63fsdelC, [35S]-radiolabeled in vitro translated (human) (UniProt P52945); test: GST pull-down with [35S]-labelled human PDX-1 proteins; reference is wild-type human PDX-1
# [2] = molecular target: Gal4-PDX-1 (Gal4 fusion protein of PDX-1) (UniProt P04386); test: cell-based or functional assay
# [3] = molecular target: p300 (full-length histone acetyltransferase and nuclear receptor coactivator) (UniProt Q09472); test: cell-based or functional assay
# [4] = molecular target: T2, LexA-rat PDX-1 bait fusion protein (PDX-1 amino acids 160-283) (rat, UniProt P52947 160-283); test: yeast two-hybrid interaction trap; - means no growth on leucine dropout plates and white colonies on X-gal plates
# T2 construct: range 160-283; also called carboxy-terminal PDX-1 protein fragment; not shown: LexA moiety encoded by the yeast bait vector pEG202
# GST-p300 (1572-2370) = molecular target: T1, GST-p300 (1572-2370); test: GST pull-down with [35S]-labelled in vitro translated Bridge-1
# [5] = molecular target: T3, p300 (full-length histone acetyltransferase and nuclear receptor coactivator) (UniProt Q09472 2-2414, limits assumed, [35S]-methionine labelled in the pull-down assays); test: GST pull-down with [35S]-labelled in vitro translated p300
# T3 construct: mature; In vitro translated in rabbit reticulocyte lysate for the pull-downs; Expressed from pCMV-p300 in BHK cells for the reporter assay; also called [35S]-p300; radiolabeled in vitro translated full-length p300
# T3 sequence (Q09472 2-2414 limits assumed): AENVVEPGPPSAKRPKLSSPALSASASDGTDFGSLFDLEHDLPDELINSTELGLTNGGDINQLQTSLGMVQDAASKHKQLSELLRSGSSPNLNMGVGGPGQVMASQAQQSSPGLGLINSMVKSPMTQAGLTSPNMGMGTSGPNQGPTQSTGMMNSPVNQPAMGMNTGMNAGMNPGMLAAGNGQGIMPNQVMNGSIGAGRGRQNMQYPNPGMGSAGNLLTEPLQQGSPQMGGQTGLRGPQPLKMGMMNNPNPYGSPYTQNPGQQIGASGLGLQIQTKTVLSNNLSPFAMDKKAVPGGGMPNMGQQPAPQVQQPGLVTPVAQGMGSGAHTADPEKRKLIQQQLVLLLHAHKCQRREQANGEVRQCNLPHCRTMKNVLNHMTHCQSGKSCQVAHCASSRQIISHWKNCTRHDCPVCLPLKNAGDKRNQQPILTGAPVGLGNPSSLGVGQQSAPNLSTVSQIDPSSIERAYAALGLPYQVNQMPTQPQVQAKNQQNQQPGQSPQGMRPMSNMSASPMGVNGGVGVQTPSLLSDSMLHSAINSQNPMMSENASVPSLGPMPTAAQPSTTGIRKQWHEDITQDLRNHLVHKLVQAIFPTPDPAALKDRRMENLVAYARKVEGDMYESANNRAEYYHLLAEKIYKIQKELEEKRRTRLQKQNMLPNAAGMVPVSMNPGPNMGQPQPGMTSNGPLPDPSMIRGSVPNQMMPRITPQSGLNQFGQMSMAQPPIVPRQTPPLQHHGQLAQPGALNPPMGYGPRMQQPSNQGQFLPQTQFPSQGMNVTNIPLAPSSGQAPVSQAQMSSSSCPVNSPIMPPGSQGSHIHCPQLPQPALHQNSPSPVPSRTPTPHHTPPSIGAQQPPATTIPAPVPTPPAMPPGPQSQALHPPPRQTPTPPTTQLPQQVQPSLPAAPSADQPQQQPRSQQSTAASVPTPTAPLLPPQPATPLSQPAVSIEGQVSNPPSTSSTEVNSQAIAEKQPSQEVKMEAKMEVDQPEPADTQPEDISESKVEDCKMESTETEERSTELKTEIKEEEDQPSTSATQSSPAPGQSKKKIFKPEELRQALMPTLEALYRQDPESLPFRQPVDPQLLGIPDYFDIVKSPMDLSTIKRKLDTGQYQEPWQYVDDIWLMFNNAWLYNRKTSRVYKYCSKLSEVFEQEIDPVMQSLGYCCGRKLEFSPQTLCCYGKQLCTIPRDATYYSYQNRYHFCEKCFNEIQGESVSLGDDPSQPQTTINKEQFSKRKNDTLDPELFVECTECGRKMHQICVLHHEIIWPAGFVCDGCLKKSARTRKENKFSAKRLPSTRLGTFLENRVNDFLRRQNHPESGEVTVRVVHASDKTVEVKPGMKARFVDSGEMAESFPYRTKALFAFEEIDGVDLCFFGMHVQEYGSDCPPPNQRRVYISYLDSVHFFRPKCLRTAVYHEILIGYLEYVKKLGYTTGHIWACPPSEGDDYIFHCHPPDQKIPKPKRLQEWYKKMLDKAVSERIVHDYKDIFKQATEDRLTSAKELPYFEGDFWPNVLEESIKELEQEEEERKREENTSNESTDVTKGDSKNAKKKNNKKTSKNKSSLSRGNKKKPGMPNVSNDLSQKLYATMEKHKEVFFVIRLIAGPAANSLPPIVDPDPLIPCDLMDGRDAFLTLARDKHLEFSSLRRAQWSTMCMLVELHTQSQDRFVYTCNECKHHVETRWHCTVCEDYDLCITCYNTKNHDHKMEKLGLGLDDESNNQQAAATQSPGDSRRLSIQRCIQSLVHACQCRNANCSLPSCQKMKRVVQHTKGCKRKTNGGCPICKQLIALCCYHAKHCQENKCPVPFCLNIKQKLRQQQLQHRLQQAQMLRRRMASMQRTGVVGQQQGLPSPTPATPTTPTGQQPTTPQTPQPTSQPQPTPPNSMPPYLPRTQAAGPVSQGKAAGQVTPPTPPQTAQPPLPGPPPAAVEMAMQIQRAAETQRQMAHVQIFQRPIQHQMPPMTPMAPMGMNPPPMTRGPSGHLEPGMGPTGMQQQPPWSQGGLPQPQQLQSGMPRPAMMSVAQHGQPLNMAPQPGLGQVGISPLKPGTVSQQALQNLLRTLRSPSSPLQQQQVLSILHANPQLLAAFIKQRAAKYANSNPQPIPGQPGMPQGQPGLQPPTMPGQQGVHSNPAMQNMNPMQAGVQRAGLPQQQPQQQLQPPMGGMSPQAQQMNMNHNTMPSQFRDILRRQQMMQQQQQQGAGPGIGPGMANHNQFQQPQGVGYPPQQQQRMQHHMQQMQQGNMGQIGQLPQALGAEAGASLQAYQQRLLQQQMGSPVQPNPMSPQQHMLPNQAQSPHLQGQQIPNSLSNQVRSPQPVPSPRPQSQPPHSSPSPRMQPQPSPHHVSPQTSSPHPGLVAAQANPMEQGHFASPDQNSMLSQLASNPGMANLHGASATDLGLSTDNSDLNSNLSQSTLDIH
# Chain of p300 (full-length histone acetyltransferase and nuclear receptor coactivator) (UniProt Q09472) (Q09472 2-2414 limits assumed): as above
# T2 sequence (P52947 160-283 limits assumed): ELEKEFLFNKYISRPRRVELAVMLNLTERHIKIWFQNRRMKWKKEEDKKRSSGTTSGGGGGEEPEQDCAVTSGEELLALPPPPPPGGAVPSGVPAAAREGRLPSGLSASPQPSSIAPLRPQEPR
# Chain of human PDX-1/IPF-1 mutant P63fsdelC, [35S]-radiolabeled in vitro translated (human) (P52945 1-62, stated change not applied): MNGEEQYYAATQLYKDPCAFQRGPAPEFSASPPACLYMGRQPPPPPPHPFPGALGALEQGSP
molecule,measurement,setting,value
GST-Bridge-1 (glutathione-S-transferase fused to full-length rat Bridge-1) (from UniProt P08515 1-218),fold stronger interaction as compared to the wild-type PDX-1 protein,[1],> 2 fold
Gal4-Bridge-1 (Gal4 DNA-binding domain fused to full-length rat Bridge-1) (from UniProt P04386 1-147),activation of a Gal4-CAT reporter in transfected BHK cells,[2],76 fold
same,activation of a Gal4-CAT reporter in transfected BHK cells,[3],> 70 fold
B1,binding result,[4],no binding
B2,binding result,GST-p300 (1572-2370),no binding
B3,binding result,[5],no binding
